Measurements taken from the RNAGym collection of RNA variant scans (doi:10.7554/elife.80360).

B1: HDV Ribozyme (parent)
chain: GGCCGGCAUGGUCCCAGCCUCCUCGCUGGCGCCGGCUGGGCAACAUUCCGAGGGGACCGUCCCCUCGGUAAUGGCGAAUGGGACCCA

Variants of: B1
Assay: self-cleavage, relative activity (ratio to wild type); higher = more cleavage; co-transcriptional
Variant C26G A83C has a self-cleavage of 0.785.
C36G C66U gave a self-cleavage of 0.0997.
Work on C61U U79G yielded a self-cleavage of 1.15.
U46C U79A gave a self-cleavage of 0.798.
Work on C19G C66U yielded a self-cleavage of 0.0639.
A8C A51U gave a self-cleavage of 0.831.
Variant C63U A83G has a self-cleavage of 0.653.
For A43G C48U, the self-cleavage was 0.587.
C57A G76U showed a self-cleavage of 1.16.
Work on C48A C64U yielded a self-cleavage of 0.923.
C15G A45U showed a self-cleavage of 0.594.
G38A A87U gave a self-cleavage of 0.121.
G38C U46C showed a self-cleavage of 0.0923.
C22A C24A showed a self-cleavage of 0.188.
For G17U C64U, the self-cleavage was 0.521.
Variant U46A C58A has a self-cleavage of 0.57.
U37G C85U gave a self-cleavage of 0.161.
In the case of G17C G52A, the self-cleavage is reported as 0.415.
Variant A16G A83G has a self-cleavage of 0.755.
Variant C22G G76A has a self-cleavage of 0.0354.
In the case of C41A G52U, the self-cleavage is reported as 0.772.
In the case of G59U G67A, the self-cleavage is reported as 1.05.
G17A C19A showed a self-cleavage of 0.142.
In the case of C3G G68U, the self-cleavage is reported as 0.383.
Variant G74C G81U has a self-cleavage of 0.0831.
In the case of C15U G67A, the self-cleavage is reported as 0.808.
Work on G6U A56G yielded a self-cleavage of 0.623.
G6U G52C gave a self-cleavage of 0.554.
Work on C18U G34A yielded a self-cleavage of 0.117.
Work on C22U C49U yielded a self-cleavage of 0.45.
With G2U U65G the self-cleavage was 0.0782.
For G10U G31A, the self-cleavage was 0.29.
In the case of C32U C62G, the self-cleavage is reported as 0.727.
For G5U C64G, the self-cleavage was 0.161.
For C21A G50C, the self-cleavage was 0.0639.
For G6U G29A, the self-cleavage was 0.102.
Work on A16G C26A yielded a self-cleavage of 0.867.
G17A A70G showed a self-cleavage of 0.554.
In the case of A16C C57U, the self-cleavage is reported as 0.719.
In the case of G5C G53C, the self-cleavage is reported as 0.237.
With C62G U69A the self-cleavage was 1.04.
U9G C63A showed a self-cleavage of 0.935.
In the case of C19A G39C, the self-cleavage is reported as 0.
For G31A G73A, the self-cleavage was 0.234.
With C18A G76A the self-cleavage was 0.0678.
With C14A U60G the self-cleavage was 0.684.
For C26G G59U, the self-cleavage was 0.831.
Work on G17U U20C yielded a self-cleavage of 0.0573.
Variant G40A U65C has a self-cleavage of 1.12.
In the case of C44G A78U, the self-cleavage is reported as 0.19.
With C19G C21U the self-cleavage was 0.122.
In the case of C4A C62U, the self-cleavage is reported as 0.248.
In the case of G50C G54C, the self-cleavage is reported as 0.32.
In the case of G81U A87U, the self-cleavage is reported as 0.455.
Work on G38U A45C yielded a self-cleavage of 0.181.
Work on G38U A78U yielded a self-cleavage of 0.0911.
In the case of G11U C85G, the self-cleavage is reported as 0.689.
C33A G80A showed a self-cleavage of 0.123.
In the case of C57A U72C, the self-cleavage is reported as 0.856.
With C3A A56C the self-cleavage was 0.495.
G52C G73C gave a self-cleavage of 0.339.
With C58A G81A the self-cleavage was 0.514.
With C32A C49A the self-cleavage was 0.415.
Variant A8U C85A has a self-cleavage of 0.959.
Variant U20G U37C has a self-cleavage of 0.237.
With C4U C57A the self-cleavage was 1.08.
With A16C A51U the self-cleavage was 0.935.
For C4U C85A, the self-cleavage was 0.341.
G50U C86A showed a self-cleavage of 0.727.
G54U C86G showed a self-cleavage of 1.01.
U9C C62A gave a self-cleavage of 1.14.
C24U U72A gave a self-cleavage of 0.404.
C57U A83U gave a self-cleavage of 0.475.
For G5C G31A, the self-cleavage was 0.0755.
C22U C24A gave a self-cleavage of 0.302.
Variant C3A G54C has a self-cleavage of 0.34.
With C48U A56C the self-cleavage was 0.657.
Variant C57G G81U has a self-cleavage of 0.388.
C21G A83G showed a self-cleavage of 0.0987.
G2U C26U gave a self-cleavage of 0.0852.
In the case of A56U C66G, the self-cleavage is reported as 0.997.
G68U A83U gave a self-cleavage of 0.629.
For C61G G73A, the self-cleavage was 0.475.
For G68A G81U, the self-cleavage was 0.124.
